Assay results reported in patent US20240336672A1.

B1: CT-P59 (parental IgG1 version) (antibody, V domains shown)
VH: QITLKESGPTLVKPTQTLTLTCSFSGFSLSTSGVGVGWIRQPPGKALEWLALIDWDDNKYHTTSLKTRLTISKDTSKNQVVLTMTNMDPVDTATYYCARIPGFLRYRNRYYYYGMDVWGQGTTVTVSS
VL: ELVLTQPPSVSAAPGQKVTISCSGSSSNIGNNYVSWYQQLPGTAPKLLIYDNNKRPSGIPDRFSGSKSGTSATLGITGLQTGDEADYYCGTWDSSLSAGVFGGGTELTVL
B2: REG (antibody)
heavy chain variable region (VH): B1 VH
light chain variable region (VL): B1 VL

What was measured:
Settings in all cases: remark: other sources report otherwise
[1] = target: SARS-CoV-2 RBD (B.1.1.7) domain (SARS-CoV-2); test: ELISA; set-up: unit not given beside the values
[2] = target: SARS-CoV-2 RBD (P.1) domain (SARS-CoV-2); test: ELISA; set-up: unit not given beside the values
[3] = target: T1, SARS-CoV-2 kappa variant B.1.617.1/3 RBD domain (SARS-CoV-2); test: ELISA; set-up: unit not given beside the values
[4] = target: SARS-CoV-2 delta plus variant RBD (SARS-CoV-2); test: ELISA; set-up: unit not given beside the values
[5] = target: T2, SARS-CoV-2 delta variant B.1.617.2/3 RBD domain (SARS-CoV-2); test: ELISA; set-up: unit not given beside the values
[6] = target: SARS-CoV-2 RBD (B.1.351) domain (SARS-CoV-2); test: ELISA; set-up: unit not given beside the values
[7] = target: SARS-CoV-2 RBD (B.1.1.7) domain (SARS-CoV-2); test: RBD/ACE2 blocking ELISA
[8] = target: SARS-CoV-2 RBD (P.1) domain (SARS-CoV-2); test: RBD/ACE2 blocking ELISA
[9] = target: T1, SARS-CoV-2 kappa variant B.1.617.1/3 …; test: RBD/ACE2 blocking ELISA
[10] = target: SARS-CoV-2 delta plus variant RBD (SARS-CoV-2); test: RBD/ACE2 blocking ELISA
[11] = target: T2, SARS-CoV-2 delta variant B.1.617.2/3 …; test: RBD/ACE2 blocking ELISA
[12] = target: SARS-CoV-2 RBD (B.1.351) domain (SARS-CoV-2); test: RBD/ACE2 blocking ELISA
[13] = target: SARS-CoV-2 RBD (B.1.1.7) domain (SARS-CoV-2); test: ELISA
[14] = target: SARS-CoV-2 RBD (P.1) domain (SARS-CoV-2); test: ELISA
[15] = target: T1, SARS-CoV-2 kappa variant B.1.617.1/3 …; test: ELISA
[16] = target: T2, SARS-CoV-2 delta variant B.1.617.2/3 …; test: ELISA

Binder | AUC [1] | AUC [2] | AUC [3] | AUC [4] | AUC [5] | AUC [6] | % binding inhibition [7] | % binding inhibition [8] | % binding inhibition [9] | % binding inhibition [10] | % binding inhibition [11] | % binding inhibition [12] | OD405nm [13] | OD405nm [14] | OD405nm [15] | OD405nm [16]
B1 | 3 | 4 | 3 | 3 | 3 | 3 | 86% | 19% | 94% | 91% | 91% | 49% |  |  |  | 
B2 |  |  |  |  |  |  |  |  |  |  |  |  | 3.2 | 3.6 | 3.5 | 3.4
